The nature of this data set: soluble on expression in E. coli; label from the status in PepcDB or PDB records.
For “MSLNPSGKYQVKILGIEDYQALTACQSACPLGTDTKRYVRAITEGDYEKAFLIARQTNPLVSVCSRVCTAPCEKSCRKGEQGHPVDIRALKRFACDKHGVTSPRAVAGRLEEISRQNGGVGDRTGNHILTMAAVQKAGAAATSRKPAPRVAIIGSGPTGLSAAHDLALLGYGVTIFEAAPYAGGMLRTGIPAFRLPKDVLQQEIDAILNLGVELKLNSPIGEDLTLADLKAQGYESVFITIGLQDPLRILNIEGTDLAGIYSGVEYVRDHEKIRLGKRCLVIGGGGVAIDCAQHAVRQGAEQVMIACLESWETMPASLTEREDAQEEGIVFHPALGPRRFMGHNGHVARAEFLQVSSVFDSEGRFAPTFVPDSTTTLEVDSVILAVGQASTAPSLAGLAGLDLTPNGLIKAAEDMSTNLPGVFAGGDVRWRFTRNATDAIADGQKAARAIHGYLSGHTPQVIRKGFMRPVSPDFENTRCDTIAPVPIPKRDAGERVRTKEEITIGFGEAEAREQAARCRRCNIQTVFERSRCLRCGTCVDTCVNGALRIVRLADIQGDEDVAKLTDALKKSAQTRSKAMTAIIKDESRCASCGMCARRCPGGAITMAEFYCQEEWEEGHHHHHH”, the “soluble on expression in E. coli” value was “soluble”.

Regarding “MSLNRDQSDLHIDELLADPFGGNIEIPGSEAVKAEKEQVRLVDVLPEENKEKAIQLAGQIDHKNMQSIVLYGSQAQSKLLNFSHDMINHVQKKDVGEIGEILGELMKKLEQVNPDDLQSKKKGFLARMFGRVSSSLQEVLSKYQKTSVQIDRISLKLEHSKNALISDNKLLEQLYEKNKEYFAALNVYIAAGELKLEELKTKTIPELKQQAESSDHNQMAVQEVNDLIQFADRLDKRVHDLLLSRQITIQSAPQIRLIQNTNQALAEKIQSSIVTAIPLWKNQVAIALTLLRQRNAVDAQQKVSDTTNELLLKNAELLKTNTIETARANERGLVDIDTLKKVQESLISTLEETLTIQEEGRIKRRQAEEELMMMEGDLKQKLITIKEREGHHHHHH”, the “soluble on expression in E. coli” value was “soluble”.

On to “MSLNRKHETVSEFVRHLPCENCGSSDANSIYTDNHQYCFACEHYVHGDGETPTTGGRTKRMEGLISGEFKPLMKRKLTLETCRKFGYFVSEVRGRLVQVAPYFDNSGVMVAQKLRDQDKGFAILGDGAKLTLFGQNLWASGGKKIVVTEGELDAMSVSQVQNNKWPVVSLPNGAPAARKAIQRNIEYLESFEEVILMFDMDEPGREAAQECAELFSPGKCKIATLSMKDANELLVAGREQEIVTAIWNAKLYRPDGVVNVRDLLEEIRKALVMGLPWFLDPLTQLTYGRRYGEVYGLGAGTGVGKTDFLTQQIAYDIQVLGERVGTIFLEQKPTETAKRVAGKIAGKRFHVPKDTAGWTDEELDAAVDALGENLVMYDAFGETEWDIVKRKVRYMAVSEGIKLIYIDHLTAMADTADEKGSLEQIMKEMAGLANELGIIITFISHLTTPEGKPHEEGGRVTIRHFKGSRAIGFWSYFMFGLERDQQAEDPVVRQTTTFRILKDRCTGQATGEVLYLAYDRDTGLLSLTEAPEPSSPFKDESEGHHHHHH”, for which the “soluble on expression in E. coli” value is reported as “soluble”.

Turning to “MSLNRNHPANGWPLALLLAATLALHGCNEPTAATAAPANTTRHGDYTPLTVQHKLGTTVISQLPQRTVALDMNEVDFLDQLGVPVAGMPKDFVPDFLARYKDAGQTADVGSIVQPNLERVHAARPDLILITSLQANHYDELSEMAPTLHFDVDYRDSETGHVAMVRQHLLSLGQVFGKQGLAQRKADALEAKLAQARSVTRDRPERALVVLHNNGAFSAFGVQSRYGFIFNDLGVKPATTTLDTGLHGQPISSEFIQQANPDILYVVDRTAVMEHRPMMTADTLDNPLLRQTNAWKHGRVVFVDPQAWYVTAASPTSLALIADDVIRGYQDEGHHHHHH”, the “soluble on expression in E. coli” value is reported as “soluble”.

With “MSLNSMKDAFNREIDYVRLSLTDRCDLRCTYCMPATGLCFLKKEQLLTDDEIIFLLRILAKEDIKKVKLTGGEPLVRPNLLSLIKRIKQISGIEKVTLTTNGMKLAREAQGLKEAGLDGINISLDTLDPEEFREITRVGQLRNVLAGLEQAIDVGLPNIKINTVARKELSEATIVELAEIAKKETVHLRFIEMMPIGLGKEHPGKQQEEVEAILTKYYGTLQPYQKPLGNGPASYYALKDFKGKIGFISALGHCFCETCNRIRITADGHLKTCLHSADGYSLKEALAMEQTAELLGIIKSGIACKPEKHLFLEQQGEQRFMSQIGGEGHHHHHH”, the “soluble on expression in E. coli” value is “not soluble”.

As for “MSLNVLSVSSEIYPLIKTGGLADVVGALPIALEAHGVRTRTLIPGYPAVKAAVTDPVKCFEFTDLLGEKADLLEVQHERLDLLILDAPAYYERSGGPYLGQTGKDYPDNWKRFAALSLAAARIGAGVLPGWRPDMVHAHDWQAAMTPVYMRYAETPEIPSLLTIHNIAFQGQFGANIFSKLALPAHAFGMEGIEYYNDVSFLKGGLQTATALSTVSPSYAEEILTAEFGMGLEGVIGSRAHVLHGIVNGIDADVWNPATDHLIHDNYSAANLKNRALNKKAVAEHFRIDDDGSPLFCVISRLTWQKGIDLMAEAVDEIVSLGGRLVVLGAGDVALEGALLAAASRHHGRVGVAIGYNEPLSHLMQAGCDAIIIPSRFEPCGLTQLYALRYGCIPVVARTGGLADTVIDANHAALASKAATGVQFSPVTLDGLKQAIRRTVRYYHDPKLWTQMQKLGMKSDVSWEKSAGLYAALYSQLISKGHEGHHHHHH”, the “soluble on expression in E. coli” value was “soluble”.

As for “MSLPMSLTIKLFLMFLLIESSIAKQKPDLDHVNVDMSEIDYSSFFKQMIEGWEREANEKYPFRPDLNNDDSSYFLQSRDQVYVNRSFFVQGKAQAYIRQWNNWKPYRDLGNKIGVLWPTQDNDCPKIEAMNPLTYMIHGLSRRYNILPLLK”, the “soluble on expression in E. coli” value is reported as “soluble”.

In the case of “MSLQEIKGLSFYHQDWEVYCSNTGTCRAAGYQSDDGSQQPASILLTREAGSKQPVQAEFALAGDDQETFAANKIKNIRFYVNGKDLGTVSVKGVDSPLMGKLSTAQVNGLLQQATQKVDIVFKNNHYVWKISDSGMTAALLKVDDFQKRIGTVGALVKKGKSDDSKVLMPQPKLVIKKVKTADQPYLTLNPKNKQYASLYKLLMAAQPTPKEDGFCEGVYDFDSDAITAQSIELYKLTNNKVLATTLCWRGAYNEGYGAWVLNQSLTGPATYITQSASDIASGIISSAQKGRGIGDCWMSQSWIWNGQKYVQNQDMWTGMCKGLAAGGVWELDQIEAVVKEGHHHHHH”, the “soluble on expression in E. coli” value is recorded as “soluble”.

In the case of “MSLQHNGHSYTVEGLINDSTLNGQTLYISRYDDGMKVDSTQVTNGQFKFTGKADIPCFCRIDAGREYANFILEGGNIQVNVLTHNDPKGTPMNEEYTHISDKTSELVTELRKRHAAIEQQTEDKSEQLRLKKEYADTYWHPTYTRLYKDMFMKNPDNALGEFAIRELAMCALPEEMDTIFAASGPWLKSLSVYHRIEKQFQGMKATAVGQKFTDFSGKTIDGAASSLSDFVGKGQYTLVDFWASWCGPCRSESPHIAELYNTYKDKGLTVLGVAVWDKPENTKKAIKELNIDWPQIIDTGMTPMDLYGVKGIPFILLFGPDGTIIARDLRGEGMKNKVAEVLNNKEGHHHHHH”, the “soluble on expression in E. coli” value is listed as “soluble”.

In the case of “MSLQKFSDEQRSQIETIIKEYLVSHPEVLEEASEELGKRQAAAQAEKHQQAIKDNADIIYNSPRGVTVGNKNGDVTMVEFFDYNCGYCKRAMTDMMELMKDDPNLKVVLKEFPVLGPPSVEAAQVAIAVRMQDPTGKKYLDFHQKLLGGRGQADKARALAAAKDAGLDPAKIEKDMNSPEVRATIEESFKLAESMGMNGTPSYVIGKQVVVGAVGLDTLRQKINTARCGKDKCEGHHHHHH”, the “soluble on expression in E. coli” value is “soluble”.

Take “MSLQMERRGISALPLHYGHPPEYLFKRAVKLSGIMAEIIVDTYGQGELIRRLADPFWFHSLSLVTGFDWNSSGTTVFTLSALKEYLSTRDLGVKVCGGKASAMADMRADLLSSVETGILKEDDKEYVYENARRIAKIDNSLLQDGYDLYMQFVVVSDRGRHAVIQQGMNSEDRMARRYHWLIGNERVDVEGRYGLSADKTSLNVLDLSATESRDNRSAIVASVREGEVWRFRSGAQSTLDNFSLPFLDLSGRVNWKKLRDLYEYGVDDFEKIYMEKGIGKSTLRALSYIAEVIYGPKASFRDPVKFSFAVGGKDGIPKPVNTYDYDRAIEFFSDLIREKDLNVREKETIARSLAHLSQMKTNFYSEGHHHHHH”: the “soluble on expression in E. coli” value was “soluble”.

On to “MSLQNTVPSETPSPATPSPTSTVNLSDVSSDYWARPFIQAMADNNVIAGFPDGSFRPNQAVTRAEFAALIQKAFPNQNRVRQLSAGGFRDVPAGYWAISPIQYAYETGFLAGYPGNVFSPNQQIPKVQAIVAMTSGLGLTASNTGASTDLSTYYTDASSIPQYAIASVTTATQSNIVVNYPDVKQMNPQQPLTRAEVAALLYQALAKQGRVQPIASNLPASQYIVGGTEGHHHHHH”, for which the “soluble on expression in E. coli” value is reported as “soluble”.

For “MSLQRGAGQYFAGKRCFVTGAASGIGRATALRLAAQGAELYLTDRDRDGLAQTVCDARALGAQVPEHRVLDVSDYQDVAAFAADIHARHPSMDVVLNIAGVSAWGTVDQLTHDQWSRMVAINLMGPIHVIETLVPPMVAAGRGGHLVNVSSAAGLVGLPWHAAYSASKYGLRGLSEVLRFDLARHGIGVSVVVPGAVKTPLVNTVEIAGVDRDDPRVNRWVERFSGHAVTPEKAADKILAGVTRNRYLVYTSADIRALYAFKRYAWWPYTLVMRRVNVFFTRALRPGEGHHHHHH”, the “soluble on expression in E. coli” value is “soluble”.

For the sequence “MSLQSYADALSAKGYRSFGFDTDMEMDMDMGCTTMRRIEKRKGGDLADSPVDEKAEADVEVTNEISAPYEVPQFPIEQIEKKLQIQRHLNEKQATGPRPVATAAVLATNRESSSSTEGRESAVTMERNDADINFQRVSISGEDTSGVPLEDLERASTLLIEALRLRSHYMAMSDQSFPSTTARFLKTVKLKDRINNLPVKEVSESADVHLRHSPMKITNPWNVEFPNDEDFKIKPLNGVFHIYENDDESSEIKYEYPDMSQFVNDMQVMCNMIADGPLKSFCYRRLCYLSSKYQMHVLLNELRELAAQKAVPHRDFYNTRKVDTHIHAASCMNQKHLLRFIKKTLKNNANEVVTVTNGQQMTLAQVFQSMNLTTYDLTVDMLDVHADRNTFHRFDKFNSKYNPIGESRLREVFLKTDNYLNGKYFAQIIKEVAFDLEESKYQNAELRLSIYGKSPDEWYKLAKWAIDNDVYSSNIRWLIQIPRLFDIFKSNKMMKSFQEILNNIFLPLFEATARPSKHPELHRFLQYVIGFDSVDDESKPENPLFDNDVPRPEEWTYEENPPYAYYIYYMYANMTVLNKFRQSRNMNTFVLRPHCGEAGPVQHLVCGFLMAENISHGLLLRKVPVLQYLYYLTQIGIAMSPLSNNSLFLNYHRNPLPEYLARGLIISLSTDDPLQFHFTKEPLMEEYSIAAQVWKLSSCDMCELARNSVMMSGFPHAIKQQWLGPIYYEDGIMGNDITRTNVPEIRVAYRYETLLDELSNIFKVNQTCSIADMNATEGHHHHHH”, the “soluble on expression in E. coli” value is listed as “soluble”.

With “MSLQVEFRECDPGNLWIWFEFAEPPVPAELEYLKEVLESWYVLGKLGGFNAERLVAQEAEVDLSYLEYPSDSAPLTSLMHNMGSLEEKGNWARCWFDLGTADALALDVLINALRTLSLEYINLSRVIIGGQNEDWPTPDPEETDVYDDLNGYLRDHWGEEGEGHHHHHH”, the “soluble on expression in E. coli” value is listed as “soluble”.

Take “MSLRALFDALTPKQARIAAILKREGGLQLTITCREYYHLRDMLEQYKVDYICIGRYGETTEEKLVEGLKRQLQMVEIMRGLDGVVSFPSPDAVRTAFGLGKKSVVLNDTPHAYHANSLTIPLSDALIAPSAIPQDAWRRYCPKKVMTFDGVFEYMWTSRHTPNLESVRKLGLEPGSYVVFRPEEAKAAYYQWNNVQLRAKLVELVKEMGYVVVNIPRYPDQVIEGAINLIKAVDHLDLAYYAAAVITGGLTMSTEAALLGTPAVSYFPGDVYIDRYLERAGAPLLRCSSMDECIHVVKKALSMGRAPPPKMEDPLKAIVAAVQEIFGGEGHHHHHH”: the “soluble on expression in E. coli” value is listed as “soluble”.

For the origin of these results see the DeepSol protein solubility set.
